# Reference: patent publication US20060264369, “Aptamers to von Willebrand Factor and their use as thrombotic disease therapeutics” (published 2006)
# Residue numbers refer to the chain shown, from its start.
# B1: AMX237.A11 (ssDNA)
# DNA: CTACCTACGATCTGACTAGCTCCAGTGTTTTATCCAATAACCGTGCGGTGCCTCCGTGAGCTTACTCTCATGTAGTTCC
# B2: AMX238.D12 (ssDNA)
# DNA: B1 DNA with T31C, C34T
# B3: AMX237.E2 (ssDNA)
# DNA: B1 DNA with T31C, C35T
# B4: AMX237.B4 (ssDNA)
# DNA: B1 DNA with T31C, C52T
# B5: AMX237.H5 (ssDNA)
# DNA: B1 DNA with T31C, C34T, C35T
# B6: AMX237.A2 (ssDNA)
# DNA: B1 DNA with T31C
# B7: AMX199.F8 (ssDNA)
# DNA: CTACCTACGATCTGACTAGCAAGGGGATTGGCTCCGGGTCTGGCGTGCTTGGCACCTCTGGCTTACTCTCATGTAGTTCC
# B8: AMX202.F6 (ssDNA)
# DNA: B7 DNA with T50C, C58T, T59C
# B9: AMX200.E10 (ssDNA)
# DNA: B7 DNA with T50C, C58T
# B10: AMX199.D8 (ssDNA)
# DNA: B7 DNA with C55T, C58T, T59C
# B11: AMX199.B6 (ssDNA)
# DNA: B7 DNA with C53T, T59C
# B12: ARC1362 (mixed)
# mixed: GCGUGCAGUGCCUUCGGCCGTGCGGTGCCUCCGUCACGC
# modifications: 2'-OMe at 1-4,8-18,20,22,27,28,30,33,34,36-39, rest deoxy; PS between 4 and 5; 3'-idT
# B13: ARC1372 (mixed)
# mixed: B12 mixed
# modifications: 2'-OMe at 1-4,8-18,20,22,27,28,30,33,34,36-39, rest deoxy; PS between 24 and 25; 3'-idT
# B14: ARC1378 (mixed)
# mixed: B12 mixed
# modifications: 2'-OMe at 1-4,8-18,20,22,27,28,30,33,34,36-39, rest deoxy; PS between 31 and 32; 3'-idT
# B15: ARC1377 (mixed)
# mixed: B12 mixed
# modifications: 2'-OMe at 1-4,8-18,20,22,27,28,30,33,34,36-39, rest deoxy; PS between 30 and 31; 3'-idT
# B16: ARC1365 (mixed)
# mixed: B12 mixed
# modifications: 2'-OMe at 1-4,8-18,20,22,27,28,30,33,34,36-39, rest deoxy; PS between 7 and 8; 3'-idT
# B17: ARC1370 (mixed)
# mixed: B12 mixed
# modifications: 2'-OMe at 1-4,8-18,20,22,27,28,30,33,34,36-39, rest deoxy; PS between 22 and 23; 3'-idT
# B18: ARC1380 (mixed)
# mixed: B12 mixed
# modifications: 2'-OMe at 1-4,8-18,20,22,27,28,30,33,34,36-39, rest deoxy; PS between 34 and 35; 3'-idT
# B19: ARC1373 (mixed)
# mixed: B12 mixed
# modifications: 2'-OMe at 1-4,8-18,20,22,27,28,30,33,34,36-39, rest deoxy; PS between 25 and 26; 3'-idT
# B20: ARC1375 (mixed)
# mixed: B12 mixed
# modifications: 2'-OMe at 1-4,8-18,20,22,27,28,30,33,34,36-39, rest deoxy; PS between 28 and 29; 3'-idT
# B21: ARC1363 (mixed)
# mixed: B12 mixed
# modifications: 2'-OMe at 1-4,8-18,20,22,27,28,30,33,34,36-39, rest deoxy; PS between 5 and 6; 3'-idT
# B22: ARC1366 (mixed)
# mixed: B12 mixed
# modifications: 2'-OMe at 1-4,8-18,20,22,27,28,30,33,34,36-39, rest deoxy; PS between 18 and 19; 3'-idT
# B23: ARC1369 (mixed)
# mixed: B12 mixed
# modifications: 2'-OMe at 1-4,8-18,20,22,27,28,30,33,34,36-39, rest deoxy; PS between 21 and 22; 3'-idT
# B24: ARC1371 (mixed)
# mixed: B12 mixed
# modifications: 2'-OMe at 1-4,8-18,20,22,27,28,30,33,34,36-39, rest deoxy; PS between 23 and 24; 3'-idT
# B25: ARC1376 (mixed)
# mixed: B12 mixed
# modifications: 2'-OMe at 1-4,8-18,20,22,27,28,30,33,34,36-39, rest deoxy; PS between 29 and 30; 3'-idT
# B26: ARC1374 (mixed)
# mixed: B12 mixed
# modifications: 2'-OMe at 1-4,8-18,20,22,27,28,30,33,34,36-39, rest deoxy; PS between 26 and 27; 3'-idT
# B27: ARC1364 (mixed)
# mixed: B12 mixed
# modifications: 2'-OMe at 1-4,8-18,20,22,27,28,30,33,34,36-39, rest deoxy; PS between 6 and 7; 3'-idT
# B28: ARC1379 (mixed)
# mixed: B12 mixed
# modifications: 2'-OMe at 1-4,8-18,20,22,27,28,30,33,34,36-39, rest deoxy; PS between 32 and 33; 3'-idT
# B29: ARC1367 (mixed)
# mixed: B12 mixed
# modifications: 2'-OMe at 1-4,8-18,20,22,27,28,30,33,34,36-39, rest deoxy; PS between 19 and 20; 3'-idT
# B30: AMX199.G5 (ssDNA)
# DNA: CTACCTACGATCTGACTAGCGAAACACTAGGTTGGTTAGGATTGGTGTGTTCCCGCCCTGCTTACTCTCATGTAGTTCC
# B31: AMX199.F11 (ssDNA)
# DNA: B30 DNA with C52T, C54T, C57T
# B32: AMX200.A11 (ssDNA)
# DNA: CTACCTACGATCTGACTAGCTGAGTAGTTAGTAACTTTTTATTATGGTTTGGTGGGTCTGGCTTACTCTCATGTAGTTCC
# B33: AMX200.H8 (ssDNA)
# DNA: B32 DNA with T29C, C35T, T57C
# B34: AMX236.H1 (ssDNA)
# DNA: CTACCTACGATCTGACTAGCCTCAGATTGACTCCGGCCGACTTGTTTTAATCTTCTGAGTGCTTACTCTCATGTAGTTCC
# B35: AMX236.G1 (ssDNA)
# DNA: B34 DNA with C38T
# B36: AMX236.B3 (ssDNA)
# DNA: CTACCTACGATCTGACTAGCCTTACCTATTCCCTTCTGCGGAATACGTCGAGTACTATGCTTACTCTCATGTAGTTCC
# B37: AMX200.G11 (ssDNA)
# DNA: CTACCTACGATCTGACTAGCGGAACGAGAATGCTGATGGATTGCTCAGGTCTGCTGGCTGCTTACTCTCATGTAGTTCC
# B38: AMX202.A3 (ssDNA)
# DNA: B37 DNA with C25T, A30G, T31C
# B39: AMX200.B8 (ssDNA)
# DNA: B37 DNA with C25T, C33T, A36G
# B40: AMX200.D11 (ssDNA)
# DNA: B37 DNA with C25T, G26A
# B41: AMX200.F9 (ssDNA)
# DNA: B37 DNA with C25T, A29G, C44G
# B42: AMX200.B1 (ssDNA)
# DNA: B37 DNA with C25T, T45C
# B43: AMX200.D8 (ssDNA)
# DNA: B37 DNA with C25T, C33T
# B44: AMX200.E8 (ssDNA)
# DNA: B37 DNA with C25T, A29G, A36G, C54T
# B45: AMX202.D6 (ssDNA)
# DNA: B37 DNA with C25T, T31G
# B46: AMX200.B9 (ssDNA)
# DNA: B37 DNA with C25T, G57A
# B47: AMX202.H10 (ssDNA)
# DNA: B37 DNA with C25T, T31G, A36G
# B48: AMX202.B8 (ssDNA)
# DNA: B37 DNA with C25T, A29T
# B49: AMX200.A7 (ssDNA)
# DNA: B37 DNA with C25T, C44T
# Tests used:
# [1] = target: T1, von Willebrand factor full length (Homo sapiens, UniProt P04275 SEQ:764-2813); assay: filter; 20 nM protein; settings: tags: Calbiochem 681300
# Protocol: When a significant positive ratio of binding of DNA in the presence of human or rabbit vWF A1 domain versus in the absence of protein was seen, the pools were cloned using the TOPO TA cloning kit (Invitrogen Cat.# 45-0641, Carlsbad, Calif.) according to the manufacturer's instructions. […] All unique clones were assayed twice in a 3-point dot blot screen (no protein target control, 20 nM full length human vWF (Calbiochem Cat.# 681300, La Jolla, Calif.), or 20 nM rabbit vWF A1 domain. The data is presented in the third and fourth columns of Table 17 below as the ratio of the fraction of the aptamer bound to the nitrocellulose in the presence of the target protein to the fraction of aptamer bound in the absence of the target protein.
# [2] = target: von Willebrand factor A1 domain (human) (Homo sapiens, UniProt P04275 SEQ:13-246); assay: filter; 100 nM protein
# Protocol: All unique clones were assayed in a 3-point dot blot screen (no protein target control, 100 nM human vWF A1 domain (SEQ ID NO 5), or 100 nM rabbit vWF A1 domain (SEQ ID NO 6). The data are presented in the third and fourth columns of Table 14 below as the ratio of the fraction of the aptamer bound to the nitrocellulose in the presence of the target protein to the fraction of aptamer bound in the absence of the target protein.
# [3] = target: T1, von Willebrand factor full length; assay: filter; settings: tags: Calbiochem 681300
# Protocol: For KD determination, chemically synthesized aptamers were purified using denaturing polyacrylamide gel electrophoresis, 5′end labeled with γ-³²P ATP and were tested for direct binding to full length human vWF (Calbiochem Cat.# 681300, La Jolla, Calif.). An 8 point protein titration was used in the dot blot binding assay (100 nM, 30 nM, 10 nM, 3 nM, 1 nM, 300 pM, 100 pM, 0 pM)) in 1× Dulbecco's PBS containing […] (final volume of 50 uL) for 30 minutes at room temperature. KD values were calculated by fitting the equation y=(max/(1+K/protein))+yint using KaleidaGraph (KaleidaGraph v. 3.51, Synergy Software).
Binder,binding signal [2],Kd [3] [nM],other results
B1,–,–,binding signal [1]: 2.66 ratio to no protein
B2,–,–,binding signal [1]: 2.4 ratio to no protein
B3,–,–,binding signal [1]: 1.61 ratio to no protein
B4,–,–,binding signal [1]: 1.42 ratio to no protein
B5,–,–,binding signal [1]: 1.63 ratio to no protein
B6,–,–,binding signal [1]: 2.6 ratio to no protein
B7,1.78 ratio to no protein,–,–
B8,1.49 ratio to no protein,–,–
B9,1.69 ratio to no protein,–,–
B10,1.89 ratio to no protein,–,–
B11,2.01 ratio to no protein,–,–
B12,–,9.9,–
B13,–,23.5,–
B14,–,9.1,–
B15,–,7.4,–
B16,–,10.8,–
B17,–,10.1,–
B18,–,12,–
B19,–,7.1,–
B20,–,8.8,–
B21,–,12.7,–
B22,–,15.5,–
B23,–,16.3,–
B24,–,8.4,–
B25,–,4.4,–

Binder,binding signal [2],Kd [3] [nM],other results
B26,–,9.5,–
B27,–,8.2,–
B28,–,10.4,–
B29,–,13.9,–
B30,1.41 ratio to no protein,–,–
B31,1.44 ratio to no protein,–,–
B32,1.49 ratio to no protein,–,–
B33,1.86 ratio to no protein,–,–
B34,–,–,binding signal [1]: 1.1 ratio to no protein
B35,–,–,binding signal [1]: 1.47 ratio to no protein
B36,–,–,binding signal [1]: 1.54 ratio to no protein
B37,1.73 ratio to no protein,–,–
B38,2.28 ratio to no protein,–,–
B39,4.13 ratio to no protein,–,–
B40,3.34 ratio to no protein,–,–
B41,0.97 ratio to no protein,–,–
B42,4.01 ratio to no protein,–,–
B43,2.86 ratio to no protein,–,–
B44,1.04 ratio to no protein,–,–
B45,1.94 ratio to no protein,–,–
B46,2.54 ratio to no protein,–,–
B47,1.92 ratio to no protein,–,–
B48,1.66 ratio to no protein,–,–
B49,0.97 ratio to no protein,–,–
